The record followed here is patent publication US20150344570A1 (published 2015).

Assay [1] deals with T1, FcγRIIb extracellular domain with C-terminal His tag (human, UniProt P31994 43-217).
T1 construct: extracellular domain; Soluble receptor expressed in FreeStyle293 cells, used as analyte in Biacore; also called FcgRIIb; 2b; not shown: His tag attached to the C terminus
T1 sequence (looked up): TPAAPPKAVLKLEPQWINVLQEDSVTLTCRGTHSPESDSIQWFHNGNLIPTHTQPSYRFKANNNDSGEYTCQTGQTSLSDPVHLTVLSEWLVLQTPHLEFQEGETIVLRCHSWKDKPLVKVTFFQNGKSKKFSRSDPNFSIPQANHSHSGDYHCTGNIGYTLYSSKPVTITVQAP
Description: SPR (Biacore T100), antibody captured on antigen peptide chip, FcγR as analyte. Here is the method:
(§1) Analysis of interaction between objective antibody and the FcγR was carried out using Biacore T100 (GE Healthcare). HBS-EP+ (GE Healthcare) was used as the running buffer, and the measurement temperature was set to 25° C. Chips produced by immobilizing the antigen peptide by the amine coupling method to a Series S Sencor Chip CM5 (GE Healthcare), or alternatively, chips produced by allowing preliminarily biotinylated antigen peptides to interact with and immobilize onto a Series S Sensor Chip SA (certified) (GE Healthcare) were used. Antibodies of interest were captured onto an antigen peptide-immobilized chip, and allowed to interact to each FcγR diluted with running buffer. To regenerate and repeatedly use the chip, the antibodies captured on the chip were washed off by reacting 10 mM glycine-HCl, pH 1.5.
Background: Surface plasmon resonance follows binding to a sensor surface in real time, without labels.

Assay [2] has as its target T2, FcγRIIIa extracellular domain with C-terminal His tag (human, UniProt P08637 17-208).
T2 construct: extracellular domain; also called FcgRIIIa; 3a; not shown: His tag attached to the C terminus
The description is as above. How it is done: as §1

Assay [3] deals with T2, FcγRIIIa extracellular domain with …. Description: SPR (Biacore); He/Con_3a (FcγRIIIa) divided by He/Con_2b (FcγRIIb).
The next assay addresses T3, FcγRIIIa (human, UniProt P08637 17-208).
T3 construct: extracellular domain; also called 3a; FcgRIIIa
Description: SPR (Biacore), antibody captured on antigen-peptide chip, FcγR as analyte; binding of Ho Ab / binding of HoCon Ab GpH7-B3/GpL16-k0 x 100. Here is the method: as §1

T3 sequence (P08637 17-208): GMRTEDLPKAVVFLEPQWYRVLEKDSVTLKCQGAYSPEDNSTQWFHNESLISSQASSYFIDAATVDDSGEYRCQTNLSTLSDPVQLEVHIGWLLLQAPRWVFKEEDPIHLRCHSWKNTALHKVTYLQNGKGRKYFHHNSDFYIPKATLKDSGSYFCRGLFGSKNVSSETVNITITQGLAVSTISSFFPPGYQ
T2 sequence (P08637 17-208): as above

B1: GpH7-A5/GpH7-B3 variant S267_08L/GpL16-k0 (antibody, human IgG1, kappa)
heavy 1: not shown
heavy 2: not shown
light: DIVMTQSPLSLPVTPGEPASISCQASESLVHSNRNTYLHWYLQKPGQSPQLLIYKVSNRFSGVPDRFSGSGSGTDFTLKISRVEAEDVGVYYCSQNTHVPPTFGQGTKVEIERTVAAPSVFIFPPSDEQLKSGTASVVCLLNNFYPREAKVQWKVDNALQSGNSQESVTEQDSKDSTYSLSSTLTLSKADYEKHKVYACEVTHQGLSSPVTKSFNRGEC
notes: Heterodimerized antibody (He Ab) with the mutation in only one H chain; also called He Ab S267L
As for B1, in assay [1], the He/Con_2b is 109 relative binding, GpH7-A5/GpH7-B3/GpL16-k0 = 100. Besides, in assay [2], the He/Con_3a was 19.5 relative binding, GpH7-A5/GpH7-B3/GpL16-k0 = 100. In assay [3], the “He_3a/2b (IIIa/IIb)” value was found to be 0.18 ratio.

B2: GpH7-B3 variant S324_01G/GpL16-k0 (Ho Ab) (antibody, human IgG1, kappa)
heavy: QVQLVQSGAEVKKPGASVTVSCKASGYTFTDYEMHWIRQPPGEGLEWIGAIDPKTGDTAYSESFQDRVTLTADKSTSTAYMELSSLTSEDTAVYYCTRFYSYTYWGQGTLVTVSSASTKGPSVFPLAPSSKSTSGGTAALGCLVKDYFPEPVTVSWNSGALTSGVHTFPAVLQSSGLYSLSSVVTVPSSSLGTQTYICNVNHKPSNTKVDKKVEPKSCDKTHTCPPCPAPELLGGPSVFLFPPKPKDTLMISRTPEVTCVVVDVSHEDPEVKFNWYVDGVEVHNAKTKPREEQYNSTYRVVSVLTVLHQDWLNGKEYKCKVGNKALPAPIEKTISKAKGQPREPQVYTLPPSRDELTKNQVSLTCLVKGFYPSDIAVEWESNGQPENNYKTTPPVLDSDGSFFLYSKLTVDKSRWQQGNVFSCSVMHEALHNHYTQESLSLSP
light: B1 light
notes: Homodimerized anti-glypican-3 antibody; the alteration stands in both H chains
In the case of B2, the Ho/Con_3a with FcγRIIIa was 119 relative to control = 100.

B3: GpH7-B3 variant T335_08L/GpL16-k0 (Ho Ab) (antibody, human IgG1, kappa)
heavy: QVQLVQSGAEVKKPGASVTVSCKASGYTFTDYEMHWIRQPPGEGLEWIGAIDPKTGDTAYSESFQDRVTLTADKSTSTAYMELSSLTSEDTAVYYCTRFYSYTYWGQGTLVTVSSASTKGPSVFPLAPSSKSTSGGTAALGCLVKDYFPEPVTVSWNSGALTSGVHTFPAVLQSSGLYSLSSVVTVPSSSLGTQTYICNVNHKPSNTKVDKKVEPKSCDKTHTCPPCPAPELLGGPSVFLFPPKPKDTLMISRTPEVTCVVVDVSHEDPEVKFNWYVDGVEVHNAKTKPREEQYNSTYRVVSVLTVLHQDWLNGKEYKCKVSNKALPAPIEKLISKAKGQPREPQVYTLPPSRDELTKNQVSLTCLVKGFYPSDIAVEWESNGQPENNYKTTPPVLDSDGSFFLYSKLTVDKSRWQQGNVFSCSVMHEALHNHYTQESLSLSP
light: B1 light
notes: as for B2
As for B3, the Ho/Con_3a with FcγRIIIa was 103 relative to control = 100.

B4: GpH7-A5/GpH7-B3 variant S267_14T/GpL16-k0 (antibody, human IgG1, kappa)
heavy 1: not shown
heavy 2: not shown
light: B1 light
notes: Heterodimerized antibody (He Ab) with the mutation in only one H chain; also called He Ab S267T
Turning to B4, the He/Con_2b in assay [1] was 104 relative binding, GpH7-A5/GpH7-B3/GpL16-k0 = 100. For the same molecule, the He/Con_3a in assay [2] is 45.6 relative binding, GpH7-A5/GpH7-B3/GpL16-k0 = 100. For the same molecule, the “He_3a/2b (IIIa/IIb)” value in assay [3] came to 0.44 ratio.

B5: GpH7-B3 variant S337_16H/GpL16-k0 (Ho Ab) (antibody, human IgG1, kappa)
heavy: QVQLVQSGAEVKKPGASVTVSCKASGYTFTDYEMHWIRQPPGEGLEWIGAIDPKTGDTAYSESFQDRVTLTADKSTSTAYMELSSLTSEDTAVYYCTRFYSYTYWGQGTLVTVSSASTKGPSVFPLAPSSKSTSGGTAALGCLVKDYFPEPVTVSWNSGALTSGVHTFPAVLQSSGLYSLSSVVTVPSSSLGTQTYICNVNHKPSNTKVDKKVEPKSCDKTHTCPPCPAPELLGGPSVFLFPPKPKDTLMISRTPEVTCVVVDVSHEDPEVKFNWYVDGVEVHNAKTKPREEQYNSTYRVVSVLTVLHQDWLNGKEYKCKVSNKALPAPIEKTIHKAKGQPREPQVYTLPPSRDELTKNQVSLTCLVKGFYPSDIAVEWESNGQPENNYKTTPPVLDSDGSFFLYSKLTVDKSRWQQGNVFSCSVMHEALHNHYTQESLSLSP
light: B1 light
notes: as for B2
With B5, the Ho/Con_3a with FcγRIIIa is 112 relative to control = 100.

B6: GpH7-B3 variant Y296_20W/GpL16-k0 (Ho Ab) (antibody, human IgG1, kappa)
heavy: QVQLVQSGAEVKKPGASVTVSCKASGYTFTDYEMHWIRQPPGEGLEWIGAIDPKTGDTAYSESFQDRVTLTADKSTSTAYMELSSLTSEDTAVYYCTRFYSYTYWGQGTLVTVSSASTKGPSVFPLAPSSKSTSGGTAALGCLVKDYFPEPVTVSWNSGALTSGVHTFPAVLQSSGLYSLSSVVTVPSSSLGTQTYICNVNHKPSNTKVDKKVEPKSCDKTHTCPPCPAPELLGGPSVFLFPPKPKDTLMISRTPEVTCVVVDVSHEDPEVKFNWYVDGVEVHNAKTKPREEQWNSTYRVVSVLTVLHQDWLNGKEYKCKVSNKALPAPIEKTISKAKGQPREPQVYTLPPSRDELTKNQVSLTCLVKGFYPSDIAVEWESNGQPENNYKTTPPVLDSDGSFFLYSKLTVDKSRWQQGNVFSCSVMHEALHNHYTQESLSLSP
light: B1 light
notes: as for B2
In the case of B6, the Ho/Con_3a in the assay with FcγRIIIa is 146 relative to control = 100.

B7: GpH7-A5/GpH7-B3 variant S267_10E/GpL16-k0 (antibody, human IgG1, kappa)
heavy 1: not shown
heavy 2: not shown
light: B1 light
notes: Heterodimerized antibody (He Ab) with the mutation in only one H chain; also called He Ab S267E
As for B7, the He/Con_2b in assay [1] is 379 relative binding, GpH7-A5/GpH7-B3/GpL16-k0 = 100. Further, in assay [2], the He/Con_3a is 91.9 relative binding, GpH7-A5/GpH7-B3/GpL16-k0 = 100. Further, in assay [3], the “He_3a/2b (IIIa/IIb)” value is 0.24 ratio.

B8: GpH7-A5/GpH7-B3 variant S267_09D/GpL16-k0 (antibody, human IgG1, kappa)
heavy 1: not shown
heavy 2: not shown
light: B1 light
notes: Heterodimerized antibody (He Ab) with the mutation in only one H chain; also called He Ab S267D
With B8, the He/Con_2b in assay [1] was 310 relative binding, GpH7-A5/GpH7-B3/GpL16-k0 = 100. For the same molecule, in assay [2], the He/Con_3a is 181 relative binding, GpH7-A5/GpH7-B3/GpL16-k0 = 100. In addition, in assay [3], the “He_3a/2b (IIIa/IIb)” value stood at 0.58 ratio.

B9: GpH7-A5/GpH7-B3 variant H268_18N/GpL16-k0 (antibody, human IgG1, kappa)
heavy 1: not shown
heavy 2: not shown
light: B1 light
notes: Heterodimerized antibody (He Ab) with the mutation in only one H chain; also called He Ab H268N
On to B9, for which, in assay [1], the He/Con_2b is 156 relative binding, GpH7-A5/GpH7-B3/GpL16-k0 = 100. Moreover, in assay [2], the He/Con_3a was 104 relative binding, GpH7-A5/GpH7-B3/GpL16-k0 = 100. The “He_3a/2b (IIIa/IIb)” value in assay [3] worked out at 0.67 ratio.

B10: GpH7-A5/GpH7-B3 variant H268_20W/GpL16-k0 (antibody, human IgG1, kappa)
heavy 1: not shown
heavy 2: not shown
light: B1 light
notes: Heterodimerized antibody (He Ab) with the mutation in only one H chain; also called He Ab H268W
In the case of B10, the He/Con_2b in assay [1] was 111 relative binding, GpH7-A5/GpH7-B3/GpL16-k0 = 100. In addition, in assay [2], the He/Con_3a was 82.8 relative binding, GpH7-A5/GpH7-B3/GpL16-k0 = 100. Besides, in assay [3], the “He_3a/2b (IIIa/IIb)” value amounted to 0.74 ratio.

B11: GpH7-A5/GpH7-B3 variant S267_15Y/GpL16-k0 (antibody, human IgG1, kappa)
heavy 1: not shown
heavy 2: not shown
light: B1 light
notes: Heterodimerized antibody (He Ab) with the mutation in only one H chain; also called He Ab S267Y
With B11, in assay [1], the He/Con_2b is 37.9 relative binding, GpH7-A5/GpH7-B3/GpL16-k0 = 100. Besides, in assay [2], the He/Con_3a was 11.8 relative binding, GpH7-A5/GpH7-B3/GpL16-k0 = 100. Besides, the “He_3a/2b (IIIa/IIb)” value in assay [3] stood at 0.31 ratio.

B12: GpH7-A5/GpH7-B3 variant P271_08L/GpL16-k0 (antibody, human IgG1, kappa)
heavy 1: not shown
heavy 2: not shown
light: B1 light
notes: Heterodimerized antibody (He Ab) with the mutation in only one H chain; also called He Ab P271L
Take B12: in assay [1], the He/Con_2b was 103 relative binding, GpH7-A5/GpH7-B3/GpL16-k0 = 100. Also, the He/Con_3a in assay [2] was 71 relative binding, GpH7-A5/GpH7-B3/GpL16-k0 = 100. For the same molecule, the “He_3a/2b (IIIa/IIb)” value in assay [3] was 0.69 ratio.

B13: GpH7-B3 variant S239_10E/GpL16-k0 (Ho Ab) (antibody, human IgG1, kappa)
heavy: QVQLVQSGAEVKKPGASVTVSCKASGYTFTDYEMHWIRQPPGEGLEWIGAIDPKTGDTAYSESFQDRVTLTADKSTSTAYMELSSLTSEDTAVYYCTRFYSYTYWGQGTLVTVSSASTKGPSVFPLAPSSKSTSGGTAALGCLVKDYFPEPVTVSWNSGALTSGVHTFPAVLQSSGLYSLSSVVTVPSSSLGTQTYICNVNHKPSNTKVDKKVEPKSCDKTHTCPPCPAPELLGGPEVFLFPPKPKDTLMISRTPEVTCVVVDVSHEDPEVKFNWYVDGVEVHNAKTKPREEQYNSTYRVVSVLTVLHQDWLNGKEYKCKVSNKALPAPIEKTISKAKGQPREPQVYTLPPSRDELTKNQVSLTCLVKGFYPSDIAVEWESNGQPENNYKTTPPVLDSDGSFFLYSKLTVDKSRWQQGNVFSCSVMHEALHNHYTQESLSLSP
light: B1 light
notes: Homodimerized anti-glypican-3 antibody; the alteration stands in both H chains (GpH7-B3 = GpH7-G1d with K439E)
Take B13: the Ho/Con_3a with FcγRIIIa was 252 relative to control = 100.

B14: GpH7-B3 variant T335_09D/GpL16-k0 (Ho Ab) (antibody, human IgG1, kappa)
heavy: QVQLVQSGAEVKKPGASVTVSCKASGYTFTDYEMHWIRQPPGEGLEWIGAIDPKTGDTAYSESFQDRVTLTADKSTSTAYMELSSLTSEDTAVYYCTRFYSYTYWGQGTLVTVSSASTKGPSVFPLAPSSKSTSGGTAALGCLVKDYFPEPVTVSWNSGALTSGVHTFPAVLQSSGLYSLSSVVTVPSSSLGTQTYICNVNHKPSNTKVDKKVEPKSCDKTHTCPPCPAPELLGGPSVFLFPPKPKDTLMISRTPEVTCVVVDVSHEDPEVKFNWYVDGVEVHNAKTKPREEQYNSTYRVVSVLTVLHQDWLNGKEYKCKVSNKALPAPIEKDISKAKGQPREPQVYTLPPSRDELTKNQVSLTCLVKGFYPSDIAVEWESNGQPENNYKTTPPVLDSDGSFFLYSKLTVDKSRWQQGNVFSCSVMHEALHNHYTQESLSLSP
light: B1 light
notes: as for B2
For B14, the Ho/Con_3a in the assay with FcγRIIIa was 114 relative to control = 100.

B15: GpH7-B3 variant T335_05P/GpL16-k0 (Ho Ab) (antibody, human IgG1, kappa)
heavy: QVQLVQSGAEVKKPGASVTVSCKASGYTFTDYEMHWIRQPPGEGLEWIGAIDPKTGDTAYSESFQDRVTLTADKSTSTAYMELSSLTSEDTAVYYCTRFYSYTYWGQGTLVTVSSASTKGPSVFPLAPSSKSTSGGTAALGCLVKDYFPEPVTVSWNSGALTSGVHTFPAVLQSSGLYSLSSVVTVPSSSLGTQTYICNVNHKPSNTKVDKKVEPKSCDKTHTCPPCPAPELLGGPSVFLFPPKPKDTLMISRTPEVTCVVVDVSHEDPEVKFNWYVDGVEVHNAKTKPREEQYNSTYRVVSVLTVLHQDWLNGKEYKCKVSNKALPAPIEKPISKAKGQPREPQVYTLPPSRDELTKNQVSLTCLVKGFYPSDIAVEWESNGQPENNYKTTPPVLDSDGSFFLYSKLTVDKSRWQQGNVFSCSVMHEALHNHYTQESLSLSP
light: B1 light
notes: as for B2
In the case of B15, in the assay with FcγRIIIa, the Ho/Con_3a was 119 relative to control = 100.

B16: GpH7-B3 variant Y300_08L/GpL16-k0 (Ho Ab) (antibody, human IgG1, kappa)
heavy: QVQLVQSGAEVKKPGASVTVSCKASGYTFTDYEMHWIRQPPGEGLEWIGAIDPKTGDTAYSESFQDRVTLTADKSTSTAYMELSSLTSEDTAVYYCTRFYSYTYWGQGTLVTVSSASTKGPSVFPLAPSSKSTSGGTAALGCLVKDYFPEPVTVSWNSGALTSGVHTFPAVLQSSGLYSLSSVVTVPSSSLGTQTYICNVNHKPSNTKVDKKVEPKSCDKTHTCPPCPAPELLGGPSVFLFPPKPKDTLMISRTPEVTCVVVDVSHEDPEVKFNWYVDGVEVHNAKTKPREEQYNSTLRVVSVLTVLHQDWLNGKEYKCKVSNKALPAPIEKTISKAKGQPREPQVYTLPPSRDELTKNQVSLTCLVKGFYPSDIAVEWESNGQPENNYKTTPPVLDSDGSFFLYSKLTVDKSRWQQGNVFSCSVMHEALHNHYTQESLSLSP
light: B1 light
notes: as for B2
Consider B16, for which, in the assay with FcγRIIIa, the Ho/Con_3a is 105 relative to control = 100.
